Key:
[1] = biological target: TNF receptor-2 (TNFR-2), rat (rat) (UniProt Q80WY6)
[2] = biological target: TNF receptor-2 (TNFR-2), rat (rat) (UniProt Q80WY6); remark: listed apart in the source
[3] = biological target: TNF receptor-1 (TNFR-1), rat (rat) (UniProt P22934)
[4] = biological target: TNF receptor-1 (TNFR-1), rat (rat) (UniProt P22934); remark: listed apart in the source

Sequence of UniProt Q80WY6 (Q80WY6 23-474): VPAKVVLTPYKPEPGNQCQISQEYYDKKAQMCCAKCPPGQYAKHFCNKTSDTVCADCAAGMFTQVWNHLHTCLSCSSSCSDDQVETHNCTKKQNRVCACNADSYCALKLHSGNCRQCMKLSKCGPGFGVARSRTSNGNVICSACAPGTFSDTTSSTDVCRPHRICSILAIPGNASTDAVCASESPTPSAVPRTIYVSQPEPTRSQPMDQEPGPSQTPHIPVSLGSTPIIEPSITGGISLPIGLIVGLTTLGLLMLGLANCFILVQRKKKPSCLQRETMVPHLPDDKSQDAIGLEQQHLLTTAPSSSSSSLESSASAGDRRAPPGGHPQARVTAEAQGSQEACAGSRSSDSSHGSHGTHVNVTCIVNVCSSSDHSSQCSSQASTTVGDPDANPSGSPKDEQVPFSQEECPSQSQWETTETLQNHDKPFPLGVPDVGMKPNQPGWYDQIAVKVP
Sequence of UniProt P22934 (P22934 30-461): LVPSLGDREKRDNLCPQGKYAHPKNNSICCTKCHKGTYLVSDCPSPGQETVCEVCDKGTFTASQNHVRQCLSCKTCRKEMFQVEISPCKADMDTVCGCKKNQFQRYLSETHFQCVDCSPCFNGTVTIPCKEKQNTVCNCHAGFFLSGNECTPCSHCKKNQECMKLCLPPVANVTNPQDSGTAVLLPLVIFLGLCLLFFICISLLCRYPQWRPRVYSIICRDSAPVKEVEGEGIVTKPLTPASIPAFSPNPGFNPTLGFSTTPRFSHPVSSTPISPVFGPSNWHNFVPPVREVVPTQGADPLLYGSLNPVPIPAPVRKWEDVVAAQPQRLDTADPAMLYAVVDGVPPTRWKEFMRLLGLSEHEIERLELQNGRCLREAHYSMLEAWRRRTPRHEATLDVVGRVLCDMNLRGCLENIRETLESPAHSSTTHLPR

| Substance | increase of the TTX-resistant NaV1.8 current I NaV(1.8) in small rat DRG neurons, whole-cell patch clamp, repetitive depolarization to 0 mV, D145 100 pg, 300 s after treatment [1] | increase of the voltage-gated sodium channel current I Na(V) in small rat DRG neurons, whole-cell patch clamp, repetitive depolarization to 0 mV, D145 10 pg (dose-dependent over 1-100 pg) [2] | increase of the TTX-resistant NaV1.8 current I NaV(1.8) in small rat DRG neurons, whole-cell patch clamp, repetitive depolarization to 0 mV, R32W 100 pg, 300 s after treatment [3] | increase of the voltage-gated sodium channel current I Na(V) in small rat DRG neurons, whole-cell patch clamp, repetitive depolarization to 0 mV, R32W 10 pg (dose-dependent over 1-100 pg) [4] |
| --- | --- | --- | --- | --- |
| TNF mutant protein D145 (D143N/A145R), selective TNFR-2 agonist (ligand) | 14.5% | 44.9% | – | – |
| TNF mutant protein R32W (R32W/S86T), selective TNFR-1 agonist (ligand) | – | – | 18.9% | 27.2% |

Source: PMC4609494
